Square brackets hold non-standard residues; d marks the D form. Ends that are not written are not given here. Peptide text beside a SMILES is read from it. * marks the point of attachment. F2Pmp = N[C@@H](Cc1ccc(C(F)(F)P(=O)(O)O)cc1)C(=O)O; Bz = O=C(c1ccccc1)*
Columns and labels:
[1] = biological target: T1, GST-PTP1B Non-Mutated (Cys215) (Homo sapiens, UniProt P18031); experiment: GST-PTP1B SPA binding assay, non-mutated (Cys215) enzyme; competition with tritiated BzN-EJJ-CONH2; conditions: for IC50: non-mutated (Cys215) GST-PTP1B
T1 construct: made in house; host or cells: E. coli
T1 sequence (P18031 1-320): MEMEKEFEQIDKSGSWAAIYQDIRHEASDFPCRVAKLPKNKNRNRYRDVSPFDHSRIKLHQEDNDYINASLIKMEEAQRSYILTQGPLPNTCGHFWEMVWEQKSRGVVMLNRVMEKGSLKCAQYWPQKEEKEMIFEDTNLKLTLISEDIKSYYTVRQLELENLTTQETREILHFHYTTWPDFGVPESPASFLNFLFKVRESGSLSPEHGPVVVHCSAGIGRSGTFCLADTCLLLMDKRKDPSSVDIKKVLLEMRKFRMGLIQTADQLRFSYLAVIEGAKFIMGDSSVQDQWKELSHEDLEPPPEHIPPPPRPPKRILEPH
Procedure: (§1) Enzyme: Human recombinant PTPLB, containing ammo acids 1-320, (Seq. ID No. 1) fused to GST enzyme (glutathione S-transferase) purified by affinity chromatography. Wild type (Seq. ID No. 1) contains active site cysteine(215), whereas mutant (Seq. ID No. 7) contains active site serine(215).
(§2) Tritiated peptide: Bz-NEJJ-CONH2, Mwt. 808, empirical formula, C32H32T2O12P2F4
(§3) To each well is added the following solutions @ 25° C. in the following chronological order:
(§4) 1. 110 μl of assay buffer.
(§5) 2. 10 μl. of 50 nM tritiated BzN-EJJ-CONH2 in assay buffer (1X) @ 25° C.
(§6) 3. 10 μl. of testing compound in DMSO at 10 different concentrations in serial dilution (final DMSO, about 5% v/v) in duplicate @ 25° C.
(§7) 4. 10 μl. of 3.75 μg/ml purified human recombinant GST-PTP1B in enzyme dilution buffer.
(§8) 5. The plate is shaken for 2 minutes.
(§9) 6. 10 μl. of 0.3 μg/ml anti-glutathione S-transferase (anti-GST) rabbit IgG (Molecular Probes) diluted in antibody dilution buffer @ 25° C.
(§10) 7. The plate is shaken for 2 minutes.
(§11) 8. 50 μl. of protein A-PVT SPA beads (Amersham) @ 25° C.
(§12) 9. The plate is shaken for 5 minutes. The binding signal is quantified on a Microbeta 96-well plate counter.
(§13) 10. The non-specific signal is defined as the enzyme-ligand binding in the absence of anti-GST antibody.
11. 100% binding activity is defined as the enzyme-ligand binding in the presence of anti-GST antibody, but in the absence of the testing ligands with the non-specific binding subtracted.
12. Percentage of inhibition is calculated accordingly.
13. IC50 value is approximated from the non-linear regression fit with the 4-parameter/multiple sites equation (described in: “Robust Statistics”, New York, Wiley, by P. J. Huber (1981) and reported in nM units.

[2] = biological target: T2, GST-PTP1B Mutated enzyme (Ser215) (Homo sapiens, UniProt P18031, C215S); experiment: GST-PTP1B SPA binding assay, mutated (Ser215) enzyme; competition with tritiated BzN-EJJ-CONH2
T2 construct: made in house; host or cells: bacteria (DH5α named for the transformation; E. coli stated for the wild-type fusion)
T2 sequence (P18031 1-320 C215S): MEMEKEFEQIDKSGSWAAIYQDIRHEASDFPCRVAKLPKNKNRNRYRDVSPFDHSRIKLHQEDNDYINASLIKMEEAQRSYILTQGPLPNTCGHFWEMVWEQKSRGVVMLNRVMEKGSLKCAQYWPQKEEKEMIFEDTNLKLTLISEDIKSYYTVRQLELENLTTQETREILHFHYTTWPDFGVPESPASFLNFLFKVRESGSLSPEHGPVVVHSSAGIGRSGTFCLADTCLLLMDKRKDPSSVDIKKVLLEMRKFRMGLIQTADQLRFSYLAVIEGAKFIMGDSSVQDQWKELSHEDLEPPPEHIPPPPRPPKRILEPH
Procedure: as §1, §2, §3, §4, §5, §6, §7, §8, §9, §10, §11, §12, §13
11. […]
12. Percentage of inhibition is calculated accordingly. […]

[3] = biological target: T3, PTP1B (Homo sapiens, UniProt P18031); experiment: inhibition of PTP1B (stated in text, method not given); assay type: biochemical; conditions: read-out: active inhibitor of PTP1B (potency, type not given)
T3 sequence (P18031 1-435): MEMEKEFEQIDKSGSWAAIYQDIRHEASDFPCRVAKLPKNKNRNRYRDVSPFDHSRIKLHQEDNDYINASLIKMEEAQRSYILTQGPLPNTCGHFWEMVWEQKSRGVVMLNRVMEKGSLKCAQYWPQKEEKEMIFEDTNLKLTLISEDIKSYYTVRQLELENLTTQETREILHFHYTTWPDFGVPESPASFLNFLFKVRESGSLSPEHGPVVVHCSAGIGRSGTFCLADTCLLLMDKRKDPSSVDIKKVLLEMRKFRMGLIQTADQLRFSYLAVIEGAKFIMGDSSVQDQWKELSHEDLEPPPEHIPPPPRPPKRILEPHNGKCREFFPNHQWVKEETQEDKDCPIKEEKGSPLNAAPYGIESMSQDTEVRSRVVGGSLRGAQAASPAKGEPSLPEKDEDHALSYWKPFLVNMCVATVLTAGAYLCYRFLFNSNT

[4] = biological target: Human recombinant PTP1B, containing amino acids 1-320, Cys215Ser mutant, fused to GST enzyme (glutathione S-transferase) (human) (UniProt P18031); experiment: SPA raw counts, mutant GST-PTP1B with tritiated BzN-EJJ-CONH2, no anti-GST antibody, no cold tripeptide, first duplicate
[5] = biological target: Human recombinant PTP1B, containing amino acids 1-320, Cys215Ser mutant, fused to GST enzyme (glutathione S-transferase) (human) (UniProt P18031); experiment: SPA raw counts, mutant GST-PTP1B with tritiated BzN-EJJ-CONH2, no anti-GST antibody, no cold tripeptide, second duplicate
[6] = biological target: Human recombinant PTP1B, containing amino acids 1-320, Cys215Ser mutant, fused to GST enzyme (glutathione S-transferase) (human) (UniProt P18031); experiment: SPA raw counts, mutant GST-PTP1B with tritiated BzN-EJJ-CONH2, anti-GST antibody present, no cold tripeptide, first duplicate
[7] = biological target: Human recombinant PTP1B, containing amino acids 1-320, Cys215Ser mutant, fused to GST enzyme (glutathione S-transferase) (human) (UniProt P18031); experiment: SPA raw counts, mutant GST-PTP1B with tritiated BzN-EJJ-CONH2, anti-GST antibody present, no cold tripeptide, second duplicate
[8] = biological target: Human recombinant PTP1B, containing amino acids 1-320, Cys215Ser mutant, fused to GST enzyme (glutathione S-transferase) (human) (UniProt P18031); experiment: GST-PTP1B SPA binding assay, competition with tritiated BzN-EJJ-CONH2, mutated (Ser215) enzyme
[9] = biological target: Human recombinant PTP1B, containing amino acids 1-320, fused to GST enzyme (glutathione S-transferase), wild type (active site cysteine 215) (human) (UniProt P18031); experiment: GST-PTP1B SPA binding assay, competition with tritiated BzN-EJJ-CONH2, non-mutated (Cys215) enzyme
[10] = biological target: Human recombinant PTP1B, containing amino acids 1-320, Cys215Ser mutant, fused to GST enzyme (glutathione S-transferase) (human) (UniProt P18031); experiment: SPA raw counts of bound tritiated BzN-EJJ-CONH2 on mutant GST-PTP1B with cold tripeptide, first duplicate; number split over r10 and r11
[11] = biological target: Human recombinant PTP1B, containing amino acids 1-320, Cys215Ser mutant, fused to GST enzyme (glutathione S-transferase) (human) (UniProt P18031); experiment: SPA raw counts of bound tritiated BzN-EJJ-CONH2 on mutant GST-PTP1B with cold tripeptide, second duplicate; number split over r12 and r13
[12] = biological target: T4, Human recombinant PTP1B, containing amino acids 1-320, Cys215Ser mutant, fused to GST enzyme (glutathione … (human, UniProt P18031 1-320)); experiment: GST-PTP1B SPA binding assay, competition with tritiated BzN-EJJ-CONH2, mutated (Ser215) enzyme
T4 construct: ID No. 7 (cDNA); the protein in the assay has Ser at 215; also called GST-PTP-1B Cys215Ser mutant; mutant GST-PTP1B; not shown: N-terminal glutathione S-transferase carrier and the pGEX-2T linker residues
T4 sequence: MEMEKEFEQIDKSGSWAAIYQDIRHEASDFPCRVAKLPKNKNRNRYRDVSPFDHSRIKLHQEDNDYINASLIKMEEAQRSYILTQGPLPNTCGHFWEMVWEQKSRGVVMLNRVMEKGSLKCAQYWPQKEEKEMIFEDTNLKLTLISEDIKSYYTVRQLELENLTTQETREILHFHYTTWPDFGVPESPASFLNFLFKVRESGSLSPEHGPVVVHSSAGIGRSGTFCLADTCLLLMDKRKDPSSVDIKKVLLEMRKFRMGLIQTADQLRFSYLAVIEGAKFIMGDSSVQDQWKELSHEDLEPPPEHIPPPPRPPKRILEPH

[13] = biological target: T5, Human recombinant PTP1B, containing amino acids 1-320, fused to GST enzyme (glutathione S-transferase), wild … (human, UniProt P18031 1-320); experiment: GST-PTP1B SPA binding assay, competition with tritiated BzN-EJJ-CONH2, non-mutated (Cys215) enzyme
T5 construct: ID No. 1, which is the DNA strand; GST is N-terminal (pGEX-2T); also called GST-PTP1B; GST-PTP-1B fusion protein; not shown: N-terminal glutathione S-transferase carrier and the pGEX-2T linker residues
T5 sequence: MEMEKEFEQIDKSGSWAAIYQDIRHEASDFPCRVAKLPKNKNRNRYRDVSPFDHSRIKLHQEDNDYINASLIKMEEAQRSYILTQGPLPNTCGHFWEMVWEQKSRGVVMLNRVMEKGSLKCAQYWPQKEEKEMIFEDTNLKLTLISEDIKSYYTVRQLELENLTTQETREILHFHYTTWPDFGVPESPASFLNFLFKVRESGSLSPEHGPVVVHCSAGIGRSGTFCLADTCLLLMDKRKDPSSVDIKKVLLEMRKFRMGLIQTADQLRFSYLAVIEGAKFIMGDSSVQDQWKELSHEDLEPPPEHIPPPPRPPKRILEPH
Procedure: 1. 110 μl of assay buffer. 2. 10 μl. of 50 nM tritiated BzN-EJJ-CONH_2 in assay buffer (1X) @ 25° C. 3. 10 μl. of testing compound in DMSO at 10 different concentrations in serial dilution (final DMSO, about 5% v/v) in duplicate @ 25° C. 4. 10 μl. of 3.75 μg/ml purified human recombinant GST-PTP1B in enzyme dilution buffer. 5. The plate is shaken for 2 minutes. 6. 10 μl. of 0.3 μg/ml anti-glutathione S-transferase (anti-GST) rabbit IgG (Molecular Probes) diluted in antibody dilution buffer @ 25° C. 7. The plate is shaken for 2 minutes. 8. 50 μl. of protein A-PVT SPA beads (Amersham) @ 25° C. 9. The plate is shaken for 5 minutes. The binding signal is quantified on a Microbeta 96-well plate counter. 10. The non-specific signal is defined as the enzyme-ligand binding in the absence of anti-GST antibody. 11. 100% binding activity is defined as the enzyme-ligand binding in the presence of anti-GST antibody, but in the absence of the testing ligands with the non-specific binding subtracted. 12. Percentage of inhibition is calculated accordingly.

Question: For `COc1cc(OC)c(OC)cc1CC/N=C\Cc1ncc[nH]1` [Imine, reference compound], which inhibition at 2 µM ([1]; at 2 μM, non-mutated (Cys215)) is on record?
Answer: 67%

Question: And the inhibition at 2 µM ([2]; at 2 μM, mutated (Ser215))?
Answer: 10%

Question: Which IC50 [1] does the source give for `NC(=O)[C@H](Cc1ccc(C(F)(F)P(=O)(O)O)cc1)NC(=O)[C@H](Cc1ccc(C(F)(F)P(=O)(O)O)cc1)NC(=O)[C@H](CCC(=O)O)NC(=O)c1ccccc1` [Example 1, N-Benzoyl-L-glutamyl-[4-phosphono(difluoromethyl)]-L-phenylalanyl-[4-phosphono(difluoromethyl)]-L-phenlalanine Amide] (Bz-Glu-[F2Pmp]-[F2Pmp]-NH2) here?
Answer: 14 nM

Question: And the IC50 [3]?
Answer: 5 nM

Question: Which results are given for `Cc1cc(Cl)c2c(c1O)C(=O)C=CC2=O` [Quinone, reference compound]?
Answer: IC50 [1]: 4000 nM; IC50 ([2]; mutated (Ser215) GST-PTP1B): > 100000 nM

Question: For “N-(3,5-Ditritio)benzoyl-L-glutamyl-[4-phosphono(difluoromethyl)]-L-phenylalanyl-[4-phosphono(difluoromethyl)]-L-phenylalanineamide (peptide)”, which Counts (dpm), no antibody (- control), non-specific signal [4] is on record?
Answer: 252 dpm

Question: And the Counts (dpm), no antibody (- control), non-specific signal [5]?
Answer: 304 dpm

Question: And the Counts (dpm), antibody (+ control), no competitor [6]?
Answer: 5650 dpm

Question: What about the Counts (dpm), antibody (+ control), no competitor [7] of the same molecule?
Answer: 6380 dpm

Question: Which IC50 [8] does the source give for “N-Benzoyl-L-glutamyl-[4-phosphono(difluoromethyl)]-L-phenylalanyl-[4-phosphono(difluoromethyl)]-L-phenylalanineamide (peptide)” here?
Answer: 8 nM

Question: And the IC50 [9]?
Answer: 14 nM

Question: What about the Counts (dpm) at 125 nM tripeptide [10] of the same molecule?
Answer: 873 dpm

Question: And the Counts (dpm) at 250 nM tripeptide [10]?
Answer: 288 dpm

Question: What about the Counts (dpm) at 62.5 nM tripeptide [11] of the same molecule?
Answer: 1110 dpm

Question: What about the Counts (dpm) at 125 nM tripeptide [11] of the same molecule?
Answer: 588 dpm

Question: What about the Counts (dpm) at 250 nM tripeptide [11] of the same molecule?
Answer: 273 dpm

B1: DADE(F2PMP)L hexapeptide (T. Burke et al. Biochem. Biophys. Res. Comm. 204, 129, (1994)) (peptide)
peptide: DADE[F2Pmp]L
notes: Terminal caps, if any, stand only in a structure drawing that is not in the text; also called hexamer peptide containing the phosphotyrosyl mimetic F2Pmp
Question: B1 was tested. Which IC50 [12] did it give?
Answer: 100 nM

Question: What about the IC50 [13] of the same molecule?
Answer: 400 nM
